Results reported in publication PMC9482650, “Quantitative fragmentomics allow affinity mapping of interactomes” (Nature Communications, 2022).

T1: ARHGEF11, O15085
T1 sequence (O15085 42-136, limits assumed, looked up): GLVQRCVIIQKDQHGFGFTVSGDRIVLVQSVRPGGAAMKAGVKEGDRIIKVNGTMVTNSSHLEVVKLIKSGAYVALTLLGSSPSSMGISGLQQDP

T2: DLG3_3, Q92796
T2 sequence (Q92796 374-475, limits assumed, looked up): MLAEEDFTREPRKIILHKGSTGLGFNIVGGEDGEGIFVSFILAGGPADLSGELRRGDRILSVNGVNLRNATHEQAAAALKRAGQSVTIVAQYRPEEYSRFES

T3: DVL3, Q92997
T3 sequence (Q92997 244-331, limits assumed, looked up): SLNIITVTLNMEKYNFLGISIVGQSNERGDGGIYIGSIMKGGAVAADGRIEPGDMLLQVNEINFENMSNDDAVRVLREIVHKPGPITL

T4: GRIP1_4, Q9Y3R0
T4 sequence (Q9Y3R0 467-571, limits assumed, looked up): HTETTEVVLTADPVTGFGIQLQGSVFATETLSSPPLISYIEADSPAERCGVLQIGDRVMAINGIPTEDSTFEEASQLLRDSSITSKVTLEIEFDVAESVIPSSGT

T5: GRIP1_5, Q9Y3R0
T5 sequence (Q9Y3R0 568-668, limits assumed, looked up): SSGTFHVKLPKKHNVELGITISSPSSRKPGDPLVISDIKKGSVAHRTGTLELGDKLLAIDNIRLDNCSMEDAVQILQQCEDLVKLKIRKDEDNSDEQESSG

T6: LIN7B, Q9HAP6
T6 sequence (Q9HAP6 88-185, limits assumed, looked up): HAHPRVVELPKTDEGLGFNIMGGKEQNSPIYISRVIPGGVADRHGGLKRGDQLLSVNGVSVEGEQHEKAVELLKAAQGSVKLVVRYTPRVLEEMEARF

T7: LNX2_2, Q8N448
T7 sequence (Q8N448 334-432, limits assumed, looked up): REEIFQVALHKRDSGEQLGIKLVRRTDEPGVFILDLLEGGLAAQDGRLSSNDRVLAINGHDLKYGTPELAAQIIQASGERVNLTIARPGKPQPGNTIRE

T8: LNX2_3, Q8N448
T8 sequence (Q8N448 463-564, limits assumed, looked up): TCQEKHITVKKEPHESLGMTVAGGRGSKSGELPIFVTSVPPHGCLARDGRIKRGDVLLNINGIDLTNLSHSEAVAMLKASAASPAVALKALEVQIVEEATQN

T9: MPP2, Q14168
T9 sequence (Q14168 180-250, limits assumed, looked up): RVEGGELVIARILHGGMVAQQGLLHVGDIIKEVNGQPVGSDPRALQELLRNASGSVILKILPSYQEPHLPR

T10: NHERF3_1, Q5T2W1
T10 sequence (Q5T2W1 4-100, limits assumed, looked up): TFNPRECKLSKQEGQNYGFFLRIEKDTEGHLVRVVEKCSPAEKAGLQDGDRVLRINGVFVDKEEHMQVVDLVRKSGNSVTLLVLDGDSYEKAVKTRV

T11: RADIL, Q96JH8
T11 sequence (Q96JH8 971-1071, limits assumed, looked up): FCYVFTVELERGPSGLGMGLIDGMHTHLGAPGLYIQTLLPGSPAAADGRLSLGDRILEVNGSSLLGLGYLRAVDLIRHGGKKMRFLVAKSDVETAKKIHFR

T12: TIAM2, Q8IVF5
T12 sequence (Q8IVF5 885-986, limits assumed, looked up): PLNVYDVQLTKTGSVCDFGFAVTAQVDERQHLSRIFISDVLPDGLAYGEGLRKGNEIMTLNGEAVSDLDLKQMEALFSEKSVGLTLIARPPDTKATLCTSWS


Assays:
Experiment in all cases: holdup assay
Design in all cases: key: below the threshold = too weak to quantify, mostly under pKd 3.1 to 4
Details in all cases: plain residues with an end cap or a label only (N-terminal biotin on a linker: ado-ado)
[1] = biological target: T1, ARHGEF11, O15085
[2] = biological target: DLG1_2, Q12959
[3] = biological target: T2, DLG3_3, Q92796
[4] = biological target: T3, DVL3, Q92997
[5] = biological target: FRMPD4, Q14CM0
[6] = biological target: GIPC2, Q8TF65
[7] = biological target: T4, GRIP1_4, Q9Y3R0
[8] = biological target: T5, GRIP1_5, Q9Y3R0
[9] = biological target: GRIP2_5, Q9C0E4
[10] = biological target: IL16_3, Q14005
[11] = biological target: IL16_4, Q14005
[12] = biological target: Inadl_2, Q8NI35
[13] = biological target: LAP2, Q96RT1
[14] = biological target: T6, LIN7B, Q9HAP6
[15] = biological target: T7, LNX2_2, Q8N448
[16] = biological target: T8, LNX2_3, Q8N448
[17] = biological target: MAGI2_2, Q86UL8
[18] = biological target: MAST2, Q6P0Q8
[19] = biological target: T9, MPP2, Q14168
[20] = biological target: T10, NHERF3_1, Q5T2W1
[21] = biological target: NOS1, P29475
[22] = biological target: PARD3_3, Q8TEW0
[23] = biological target: T11, RADIL, Q96JH8
[24] = biological target: SNX27, Q96L92
[25] = biological target: T12, TIAM2, Q8IVF5
[26] = biological target: TJP2_1, Q9UDY2
Sequence of TJP2_1, Q9UDY2 (Q9UDY2 24-128): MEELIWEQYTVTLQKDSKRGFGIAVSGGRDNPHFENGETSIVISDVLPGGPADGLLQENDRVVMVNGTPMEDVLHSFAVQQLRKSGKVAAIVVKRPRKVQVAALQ

Sequence of NOS1, P29475 (P29475 9-101): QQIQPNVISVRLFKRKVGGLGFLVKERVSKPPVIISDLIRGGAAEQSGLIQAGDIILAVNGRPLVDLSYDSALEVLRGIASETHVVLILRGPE
Sequence of Inadl_2, Q8NI35 (Q8NI35 238-335): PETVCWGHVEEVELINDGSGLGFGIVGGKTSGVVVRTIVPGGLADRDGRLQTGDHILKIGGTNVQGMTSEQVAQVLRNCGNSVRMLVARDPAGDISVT
Sequence of GIPC2, Q8TF65 (Q8TF65 112-203): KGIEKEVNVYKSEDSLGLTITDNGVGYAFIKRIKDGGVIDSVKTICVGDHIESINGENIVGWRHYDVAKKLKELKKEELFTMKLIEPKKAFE
Sequence of LAP2, Q96RT1 (Q96RT1 other isoform, or with tags, fused parts or gaps): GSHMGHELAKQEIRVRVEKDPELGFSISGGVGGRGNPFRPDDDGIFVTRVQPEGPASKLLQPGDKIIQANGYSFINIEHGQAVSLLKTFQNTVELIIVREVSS
Sequence of GRIP2_5, Q9C0E4 (Q9C0E4 544-642): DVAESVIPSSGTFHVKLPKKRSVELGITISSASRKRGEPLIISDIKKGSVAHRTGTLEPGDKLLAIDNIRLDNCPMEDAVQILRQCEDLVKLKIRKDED
Sequence of MAGI2_2, Q86UL8 (Q86UL8 410-522): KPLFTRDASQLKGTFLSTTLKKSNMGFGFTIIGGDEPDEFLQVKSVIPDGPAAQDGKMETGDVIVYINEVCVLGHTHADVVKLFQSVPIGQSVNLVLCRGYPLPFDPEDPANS
Sequence of IL16_4, Q14005 (Q14005 1229-1329): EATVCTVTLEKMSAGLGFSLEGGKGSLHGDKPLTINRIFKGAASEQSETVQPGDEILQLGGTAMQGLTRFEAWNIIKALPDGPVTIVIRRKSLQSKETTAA
Sequence of DLG1_2, Q12959 (Q12959 314-412): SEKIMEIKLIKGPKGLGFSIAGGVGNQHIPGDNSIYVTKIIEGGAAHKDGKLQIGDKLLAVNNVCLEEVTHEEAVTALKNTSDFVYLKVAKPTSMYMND
Sequence of MAST2, Q6P0Q8 (Q6P0Q8 1099-1202): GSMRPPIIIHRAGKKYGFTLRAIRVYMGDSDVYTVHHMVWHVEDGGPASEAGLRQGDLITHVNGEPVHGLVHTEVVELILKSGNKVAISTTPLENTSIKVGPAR
Sequence of FRMPD4, Q14CM0 (Q14CM0 67-160): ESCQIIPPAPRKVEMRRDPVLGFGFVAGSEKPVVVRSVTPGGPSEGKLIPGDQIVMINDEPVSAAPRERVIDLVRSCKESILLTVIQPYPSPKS
Sequence of PARD3_3, Q8TEW0 (Q8TEW0 582-685): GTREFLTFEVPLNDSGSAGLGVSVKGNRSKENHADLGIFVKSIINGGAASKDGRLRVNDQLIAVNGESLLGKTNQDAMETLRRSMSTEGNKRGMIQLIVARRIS
Sequence of IL16_3, Q14005 (Q14005 1107-1207): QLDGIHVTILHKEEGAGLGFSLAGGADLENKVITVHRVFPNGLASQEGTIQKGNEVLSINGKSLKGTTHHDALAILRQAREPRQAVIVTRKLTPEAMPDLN

Binder	pKd [1]	pKd [2]	pKd [3]	pKd [4]	pKd [5]	pKd [6]	pKd [7]	pKd [8]	pKd [9]	pKd [10]	pKd [11]	pKd [12]	pKd [13]	pKd [14]	pKd [15]	pKd [16]	pKd [17]	pKd [18]	pKd [19]	pKd [20]	further results
GTMFLRETSL [GUCY1A2, P33402]	4.52	4.81	4.64	below the threshold	4.35	4	below the threshold	below the threshold	below the threshold	below the threshold	3.51	below the threshold	3.85	4.74	below the threshold	below the threshold	4.29	5.68	below the threshold	5.64	pKd [21]: 3.84; pKd [22]: below the threshold; pKd [23]: below the threshold; pKd [24]: 5.72; pKd [25]: 3.66; pKd [26]: below the threshold
PLATCDETSI [SEMA4F, O95754]	below the threshold	3.92	below the threshold	below the threshold	below the threshold	3.52	below the threshold	below the threshold	below the threshold	below the threshold	below the threshold	below the threshold	below the threshold	3.78	3.52	below the threshold	below the threshold	5.42	below the threshold	3.74	pKd [21]: below the threshold; pKd [22]: 3.9; pKd [23]: below the threshold; pKd [24]: 5.26; pKd [25]: 4.08; pKd [26]: below the threshold
IKLETKKTKL [SLC15A2, Q16348]	4.27	below the threshold	3.81	below the threshold	below the threshold	below the threshold	below the threshold	below the threshold	3.58	below the threshold	3.72	below the threshold	below the threshold	below the threshold	below the threshold	below the threshold	3.47	5.56	below the threshold	4.7	pKd [21]: 3.61; pKd [22]: below the threshold; pKd [23]: below the threshold; pKd [24]: 3.94; pKd [25]: below the threshold; pKd [26]: 3.85
FVFESRKEIL [TBPL1, P62380]	below the threshold	below the threshold	below the threshold	below the threshold	below the threshold	below the threshold	below the threshold	below the threshold	below the threshold	below the threshold	below the threshold	below the threshold	below the threshold	below the threshold	below the threshold	below the threshold	below the threshold	4.95	below the threshold	below the threshold	pKd [21]: 3.68; pKd [22]: below the threshold; pKd [23]: below the threshold; pKd [24]: below the threshold; pKd [25]: below the threshold; pKd [26]: below the threshold
GQNMTVSVVI [PRLHR, P49683]	4.94	below the threshold	below the threshold	below the threshold	below the threshold	below the threshold	below the threshold	below the threshold	below the threshold	below the threshold	3.62	below the threshold	below the threshold	3.79	5.11	3.61	below the threshold	below the threshold	below the threshold	below the threshold	pKd [21]: 3.82; pKd [22]: 4.1; pKd [23]: 4.26; pKd [24]: 4.34; pKd [25]: 4.2; pKd [26]: below the threshold
NSTHNLKDYV [CLDN20, P56880]	below the threshold	3.5	below the threshold	below the threshold	below the threshold	below the threshold	below the threshold	below the threshold	below the threshold	below the threshold	3.65	below the threshold	below the threshold	below the threshold	4.12	below the threshold	below the threshold	below the threshold	below the threshold	4.19	pKd [21]: 3.58; pKd [22]: below the threshold; pKd [23]: 3.85; pKd [24]: below the threshold; pKd [25]: below the threshold; pKd [26]: 3.8
